In patent US20200087364A1 (IMMATICS BIOTECHNOLOGIES, published 2020):

target: T1, HLA-A*01:01 (human); assay: UV-ligand exchange, anti-b2m ELISA
T1 construct: MHC class I monomer first loaded with a UV-sensitive peptide (not identified) that is cleaved by UV irradiation and exchanged for the tested peptide; captured on streptavidin plates, detected with anti-β2m; also called peptide-receptive MHC molecules
How it was run: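 Peptide–MHC complexes made by UV-ligand exchange of a UV-cleavable peptide; exchange yield measured by ELISA on streptavidin-coated plates, samples diluted 100-fold, 1 h 37 °C. Detection with 2 ug/ml HRP anti-β2m, TMB, A450; refolded HLA-A*02:01/MLA-001 monomer standards 15-500 ng/ml.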

peptide exchange yield [%] | Binder
50 to 75 | PSSMPECLSYY
20 to 50 | STSRLTLFS
20 to 50 | TVTDGTHTDFY
50 to 75 | YMTSMALNY
50 to 75 | VSINPNSGDIY
20 to 50 | YSPDSFNVSW
50 to 75 | SVDSNLVAY
50 to 75 | PSEVPVDSHYY
> 75 | TSDVTGSLTY
20 to 50 | YTCEECGQAF
20 to 50 | QAMPSWPTAAY
10 to 20 | TEEKFVSY
> 75 | TTEMVSNESVDY
20 to 50 | TCSHTFVYY
50 to 75 | QITSFASGTSY
> 75 | YADLLIYTY
50 to 75 | VLKIELETY

peptide exchange yield [%] | Binder
50 to 75 | TLEDLDNLYNY
> 75 | YLYQAPGSLALY
50 to 75 | VSDHLQAGMLGQY
20 to 50 | RTGIFPYRF
> 75 | YTSHEDIGY
20 to 50 | VTDGINPLI
50 to 75 | SMDPVTGYQY
50 to 75 | VLPHHSEGACVY
50 to 75 | RLDEAMISY
20 to 50 | VTTDKPRAY
50 to 75 | VTDGTHTDFY
20 to 50 | YPDLSELLM
> 75 | VLDFAPPGASAY
> 75 | PSSMPECLSY
20 to 50 | QALQDKLQTFY
20 to 50 | PPEANSLQGALY

Second part, the binder before the results:

Binder | peptide exchange yield [%]
FGTTPAAEYF | 20 to 50
FSENLIYTYI | 20 to 50
DGIADASNLSYY | 20 to 50
KAFQELGVRY | 20 to 50
LMTVLLKY | 50 to 75
LSDPQAELQFY | > 75
IMLSVDQHLY | 50 to 75
FSELNPLALY | > 75
KFDVINHYF | 20 to 50
EVDRNLIQY | 50 to 75
LQKPVLPLY | 20 to 50
FTESNQYNIY | > 75
LLDEDNNIKL | 20 to 50
GTDKQNSTLRY | 50 to 75
KTLQKPVLPLY | 20 to 50
GQRLDEAMISY | 50 to 75
ATNIQLNIDTY | 50 to 75
GFGGLSSQGVYY | 50 to 75
ETILVSSSY | 20 to 50
DTDDRELRY | 50 to 75

Binder | peptide exchange yield [%]
GQFTGTAGACRY | 20 to 50
LPAPGFLFY | 20 to 50
NTDSMTLNNTAY | > 75
ELAAGQVVY | 10 to 20
ESQTCASDY | 50 to 75
KSFETTVRY | 20 to 50
ESDEMENLLTY | 50 to 75
PANYLGKMTY | 50 to 75
ESMDIFPLGW | 20 to 50
ATDMEGNLNY | 50 to 75
EDLLEVLDMY | 20 to 50
MMEMEGMY | 50 to 75
FTDPHIITF | > 75
AATVKSDIY | 20 to 50
EGELSEGEHWY | 50 to 75
FYLSTPENYHY | 50 to 75
EVDSVALSL | 20 to 50
HMLAAMAY | 20 to 50
ENSIEDLQY | 50 to 75
